The source of these data is patent publication US20230121197A1, “ANTIBODIES SPECIFICALLY BINDING THE CARBOXYMETHYLATED CATALYTIC SUBUNIT OF PROTEIN PHOSPHATASE 2A” (Medizinische Universität Wien, priority 2020, published 2023).

The target in assay [1] is T1, carboxymethylated PP4c C-terminal peptide (ac-[…]-CH3) (Homo sapiens, UniProt P60510).
T1 construct: The following 11-mer peptides corresponding to the carboxymethylated or non-methylated carboxy-terminus of PP2A and PP4 catalytic subunits were used as antigens
The assay can be described thus: Surface plasmon resonance (Biacore T200), steady state analysis, carboxymethylated PP4c peptide. Type of assay: binding. The settings on record: PP4 Me peptide, 360 sec contact time, 40 μL/min. The procedure:
(§1) The differential affinity of anti-carboxymethylated PP2Ac antibodies, 7C10-C5 and 2A10, to carboxymethylated PP2A catalytic subunit versus noncarboxymethylated PP2A catalytic subunit was determined by surface plasmon resonance (SPR) on a Biacore T200 (GE Healthcare) at the Core Facility Biomolecular & Cellular Analysis (University of Natural Resources and Life Sciences Vienna BOKU). The affinity of 7C10-C5 for carboxymethylated and noncarboxymethylated catalytic subunit of PP4 (PP4c), a PP2A-related phosphatase, was also determined. […] The KD of the binding of 7C10-C5 (or 2A10) to non-carboxymethylated PP2Ac or PP4c could not be determined because at the highest analyte sample concentration (5000 nM) only very weak binding signals were detected indicating KD values of at least >5000 nM or higher. […]
(§2) SPR experiments were performed with the BiacoreT200 instrument (Cytiva). […] The sensorgrams obtained were analyzed with BiacoreT200 Evaluation Software (version 3.1). […]

Assay [2] has as its target T2, non-carboxymethylated PP2Ac (ac-[…]-OH) (Homo sapiens, UniProt P67775).
T2 construct: The following 11-mer peptides corresponding to the carboxymethylated or non-methylated carboxy-terminus of PP2A and PP4 catalytic subunits were used as antigens
The assay can be described thus: Surface plasmon resonance (Biacore T200), non-carboxymethylated PP2Ac peptide. The format is binding. The settings on record: SPR. The procedure: as §1, §2

Assay [3] addresses T3, mouse HA PP6c, carboxymethylated (immunoprecipitated from NIH3T3 cells) (mouse, UniProt Q9CQR6 1-305, C-terminal leucine α-carboxyl methyl ester (cellular methylation)).
T3 construct: mature; also called methylated PP6c; not shown: HA tag
T3 sequence (looked up): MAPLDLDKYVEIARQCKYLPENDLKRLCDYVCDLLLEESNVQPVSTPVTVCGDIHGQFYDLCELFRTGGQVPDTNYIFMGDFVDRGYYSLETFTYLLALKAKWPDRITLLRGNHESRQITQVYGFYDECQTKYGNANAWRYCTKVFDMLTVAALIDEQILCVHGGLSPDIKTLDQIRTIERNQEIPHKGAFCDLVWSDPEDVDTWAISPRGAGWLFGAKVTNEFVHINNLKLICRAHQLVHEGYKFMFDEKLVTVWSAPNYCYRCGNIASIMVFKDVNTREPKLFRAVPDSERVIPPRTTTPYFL
The assay can be described thus: Western blot of anti-HA immunoprecipitates from NIH3T3 cells, with quantification, N=3. An excerpt:
(A) Alignment of the C-termini of mammalian catalytic PP2Ac, PP4c and PP6c subunits (B) Immunoblotting of anti HA-immunoprecipitates of NIH3T3 cells either infected with retroviral supernatants of pBabe hygro (control) or pBabe hygro HA-PP2Ac (label “HA-PP2A), pBabe hygro HA-PP4c (label “HA-PP4”) or pBabe hygro HA-PP6c (label HA-PP6) using indicated antibodies. The label “7C10” refers to the 7C10-C5 monoclonal antibody. To equilibrate HA levels, 2 times more of the HA-PP4c and 3 times more of the HA-PP6c immunoprecipitates was loaded than HA-PP2Ac. The panel originates from 3 different blotting membranes for each antibody indicated in the panel. The blots are representative of N=3 independent immunoprecipitation experiments. The 2A10 and 7C10-C5 signals were quantified from N=3 independent experiments, normalized to the HA levels and the HA-PP2Ac signals were set to 1. Average and standard deviation (error bars) are shown. Statistical significance was assessed using ANOVA followed by Tukey's HSD as a post-hoc test. […]

B1: 7C10-C5: α-carboxymethylation specific mouse monoclonal IgG1 antibody from single clone hybridoma 7C10-C5 (DSM ACC3350) (antibody)
heavy: MYRMQLLSCIALSLALVTNSDVQLQESGPGLVKPSQSLSLTCSVTGYSITSGYYWNWIRQFPGNKLEWMGYISYDGSNNYNPSLKNRISITRDTSKNQFFLKLNSVTTEDTATYYCAGRFAYWGQGTLVTVSAAKTTAPSVYPLAPVCGDTTGSSVTLGCLVKGYFPEPVTLTWNSGSLSSGVHTFPAVLQSDLYTLSSSVTVTSSTWPSQSITCNVAHPASSTKVDKKIEPRGPTIKPCPPCKCPAPNLLGGPSVFIFPPKIKDVLMISLSPIVTCVVVDVSEDDPDVQISWFVNNVEVHTAQTQTHREDYNSTLRVVSALPIQHQDWMSGKEFKCKVNNKDLPAPIERTISKPKGSVRAPQVYVLPPPEEEMTKKQVTLTCMVTDFMPEDIYVEWTNNGKTELNYKNTEPVLDSDGSYFMYSKLRVEKKNWVERNSYSCSVVHEGLHNHHTTKSFSRTPGK
light: MDMRVPAQLLGLLLLWLSGARCDVLMTQTPLSLPVSLGDQASISCRSSQSIVHSNGNTYLEWYLQKPGQSPKLLIYKVSNRFSGVPDRFSGSGSGTDFTLKINRVEAEDLGVYYCFQGSHVPWTFGGGTKLEIKADAAPTVSIFPPSSEQLTSGGASVVCFLNNFYPKDINVKWKIDGSERQNGVLNSWTDQDSKDSTYSMSSTLTLTKDEYERHNSYTCEATHKTSTSPIVKSFNRNEC
modifications: Amino acid sequence of the recombinant 7C10-C5 heavy chain; Amino acid sequence of the recombinant 7C10-C5 light chain
B1 had an Rmax in assay [1] of 20.17 RU. In assay [2], the “binding to carboxymethylated PP2Ac stronger than to non-carboxymethylated PP2Ac” value is on record as “at least 400 fold” and the “binding to non-carboxymethylated PP2Ac” value is “does not bind to non-carboxymethylated PP2Ac to a measureable extent”.

B2: 7C10-C5 monoclonal antibody (antibody, V domains shown)
VH: DVQLQESGPGLVKPSQSLSLTCSVTGYSITSGYYWNWIRQFPGNKLEWMGYISYDGSNNYNPSLKNRISITRDTSKNQFFLKLNSVTTEDTATYYCAGRFAYWGQGTLVTVSA
VL: DVLMTQTPLSLPVSLGDQASISCRSSQSIVHSNGNTYLEWYLQKPGQSPKLLIYKVSNRFSGVPDRFSGSGSGTDFTLKINRVEAEDLGVYYCFQGSHVPWTFGGGTKLEIK
notes: Used as hybridoma culture supernatant (ELISA, Western blot, IHC) or at 50 µg/mL (SPR); also called 7C10 X63; clone 7C10-C5
As to B2, the binding result in assay [3] is on record as “no binding”.
